Measurements: a protein production outcome set (Wang et al. 2014)

Assay: label from the status in PepcDB records

Row | Sequence | protein production
1 | MDETGNLTVSSATCHDTIDDFRNQVYSTLYSMISVVGFFGNGFVLYVLIKTYHKKSAFQVYMINLAVADLLCVCTLPLRVVYYVHKGIWLFGDFLCRLSTYALYVNLYCSIFFMTAMSFFRCIAIVFPVQNINLVTQKKARFVCVGIWIFVILTSSPFLMAKPQKDEKNNTKCFEPPQDNQTKNHVLVLHYVSLFVGFIIPFVIIIVCYTMIILTLLKKSMKKNLSSHKKAIGMIMVVTAAFLVSFMPYHIQRTIHLHFLHNETKPCDSVLRMQKSVVITLSLAASNCCFDPLLYFFSGGNFRKRLSTFRKHSLSSVTYVPRKKASLPEKGEEICKV | failed
2 | MRQRDDSKRIAFLEATVREVADHGFSATSVGKIAKAAGLSPATLYIYYEDKEQLLLATFYYVSDQVIDAALDSFSRGKDLREGLRRQWHTLFRIGLERPELFRYHETFTHSAWMTPEIQARNESRAANLLNAVDQGKQSGLIKPVPFPLLETFMFRPIYHLVQRCLQGSFEGTDEHIELAFNMAWDAVADRRNT | not failed
3 | MGGFRFHQYQVVGRALPTENDEHPKIYRMKLWGRNEVCAKSKFWYFMRKLKKVKKSNGQMLAINEIFEKNPTTIKNYGIWLRYQSRTGYHNMYKEYRDTTLNGGVEQMYTEMASRHRVRFPCIQIIKTATVPAKLCKREITKQFHNSKIKFPLVFRKVRPPSRKLKTTYKASKPNLFM | failed
4 | MKLICSKANLLKGVNIVSKAVPTRTTMAILECILIDASANEIKLMANDMELGIETIIDGTIEERGIIALDAKIFSEIVRKLPDNDVTIETDASFKTVISCEKAKFNIIGKSGDDFSYIPYVERNESIVLSQFTLKEVIRQTIFSIADNDNNKLMTGELFEIEENKLRVVSLDGHRISIRYIEMKNHYDSKKVVVPGKTLQEISKIIPGSADEDVVIYITNNHIVFEFENTTVVSRLIEGEYFKIDQMLSSDYDTKVRINKRELLDCIDRATLLVKEGDKKPIIMNITDGNMELRINSFIGSMNEDIDIDKDGKDIMIGFNPKFFIDALRVIDEEEVNLYMVNPKAPCFIKDDEGKFIYLILPVNFNTAAN | not failed
5 | MRIVIAGGHGQIALRLERLLAARGDEVAGIVRKAEQADDLRAAGAEPVVLDLESASVEEVAERLRGADAAVFAAGAGPGSGVARKDTVDKAAAVLFADAAVRAGVRRFLIVSSMGADPGHQGDEIFDVYLRAKGEADAYVSSLDALDWTILRPGALTDDAGTGLVRLEAHTGRGPVPRDDVAAVLAELVDTPATNGLALELISGSAPVSVAVKSVAGN | failed
6 | MNNKLKTQAVEQLFQAILSLKDLDEAYDFFEDVCTINEILSLSQRFEVAKMLREHRTYLDIAEKTGASTATISRVNRSLNYGNDGYDRVFERLGMLEKESEDNK | not failed
7 | MIPQIPLPMLSEGKDCKIREVLAGKALKRRLTEMGFTPSSSIRLIGCERGNLLVNVNGARYALGKGMAMKIMVEPD | failed
8 | MSKITFKDIYIDGNKITEDSRKAIYLLPPQPLKYASNTWIYKTMPTMNQWLKDIEVQKKMHLNQSSYHLSFSFPANEKIDEVLLEKIRELGFQIGVLELYVIEAKALKELSRKRDVDIQLVSSNNINDYLHVYDAFARPFGDSYANMVKQHIYSSYNLDDIERLVAYVNHQPVGIVDIIMTDKTIEIDGFGVLEEFQHQGIGSEIQAYVGRMANERPVILVADGKDTAKDMYLRQGYVYQGFKYHILKENI | not failed
9 | MFESAEVGHSIDKDTYEKAVIELREALLEAQFELKQQARFPVIILINGIEGAGKGETVKLLNEWMDPRLIEVQSFLRPSDEELERPPQWRFWRRLPPKGRTGIFFGNWYSQMLYARVEGHIKEAKLDQAIDAAERFERMLCDEGALLFKFWFHLSKKQLKERLKALEKDPQHSWKLSPLDWKQSEVYDRFVHYGERVLRRTSRDYAPWYVVEGADERYRALTVGRILLEGLQAALATKERAKRQPHAAPLVSSLDNRGLLDSLDLGQYLDKDAYKEQLAAEQARLAGLIRDKRFRQHSLVAVFEGNDAAGKGGAIRRVTDALDPRQYHIVPIAAPTEEERAQPYLWRFWRHIPARRQFTIFDRSWYGRVLVERIEGFCAPADWLRAYGEINDFEEQLSEYGIIVVKFWLAIDKQTQMERFKEREKTPYKRYKITEEDWRNRDKWDQYVDAVGDMVDRTSTEIAPWTLVEANDKRFARVKVLRTINDAIEAAYKKDK | not failed
10 | MNPLHLAAAFASGCLLTLMVHFNGQLAHYGNALFSSWTAHGTGTVAALIYLAIMRPKKDAAAPAKPNAPLWAYCGGVVGAAIVILTSTAVNSPLALSGTIALGLGGQVIFSLLADLFGLFGLPKRRPDVQDMVAVCLILCGSALIILVGRAA | failed
11 | MSIPLLEYAPSSQNQRVEGYEVPNEDTPTIYRLAAAIDDADVDAIIWAGYRQIFSEHLIIKSNRQSFLESQLRNRAINVRDFIRGLGKSEVYRTQVADLNSNYRLVDITLKRFLGRAAYNQDEEIAWSIVIGSQGLHGFIDALLDSDEYRENFGDDIVPYQRRRYKDRPFNLVNPRYNAYWRDRQTLNALGGRSFYSARTSGTLTKDDIRRAIPANFMALAGKILTPERNYQRTIASVTSQIKDIKIPDTSREVTTPEVTVKPVAVALPYRYIPGNKTT | failed
12 | MEDFNMESDSFEDFWKGEDLSNYSYSSTLPPFLLDAAPCEPESLEINKYFVVIIYALVFLLSLLGNSLVMLVILYSRVGRSVTDVYLLNLALADLLFALTLPIWAASKVNGWIFGTFLCKVVSLLKEVNFYSGILLLACISVDRYLAIVHATRTLTQKRYLVKFICLSIWGLSLLLALPVLLFRRTVYSSNVSPACYEDMGNNTANWRMLLRILPQSFGFIVPLLIMLFCYGFTLRTLFKAHMGQKHRAMRVIFAVVLIFLLCWLPYNLVLLADTLMRTQVIQETCERRNHIDRALDATEILGILHSCLNPLIYAFIGQKFRHGLLKILAIHGLISKDSLPKDSRPSFVGSSSGHTSTTL | not failed
13 | VTATQLAAKATTLYYLHKQAMTDEVSLLLEQALQLEPYNEAALSLIANDHFISFRFQEAIDTWVLLLDSNDPNLDRVTIIESINKAKKLM | not failed
14 | MSTAAETTGGDIEPWEEVTPDAARRLLVAAVEAFAERGYHATTTRDIAGRAGMSPAALYIHYKTKEELLHRISRIGHTRAVAILRSAAQGEGSAAERLADAVSSFVRWHAGRRTTARVVQYELDALGPEAREEILTLRRQCDAAVRGIIDDGVAAGEFDVPDVKGTTLAVLSLCIDVARWFNVNGPRTPDEVGALYADLVLRMVGAEPSGATAQR | not failed
15 | MDVSFEFEHYQVRLIKSSDAVTIANYFMRNRHHLAPWEPKRSHAFFTPEGWKQRLLQLVELHKHNLAFYFVVVDKNEHKIIGTVSYSNITRFPFHAGHVGYSLDSEYQGKGIMRRAVNVTIDWMFKAQNLHRIMAAYIPRNEKSAKVLAALGFVKEGEAKKYLYINGAWEDHILTSKINDDWKP | not failed
16 | MDLLATRGDPVSDFSVGRVRGRHLAVPPIRHSAAPSNRHSEAPSSRARAADLDAIRLTGIAAVVVGHVWTSGPFTDALFAWHVPVFFILTGYLWKSGRTVRDEISRRSKTLLVPYVAWLAVLSVAFASVEYLRGGSLPVEALRNAVYGGAFAVRPYSAFWFVPVLFFTAVLFRWLERFPPWMAWIIAGLGLAASVFAGEVMAKTPLGIALAVPCLVFVLVGRALPAMVHRVRYKTAVGVGLVLAGVALTVGGVVQPLNMKDGDFGTVALSVVNASAISLGLILVFAALYRMVSPAVNRLTIQLASAGLVVVLTHAFFLYLLNTPASGSIFDAVVALAVPFALALLVLRSPLRRWLVG | failed
17 | MSESAKVWLVTGASSGFGRAIAEAAVAAGDTVIGTARRTEALDDLVAAYPDRAEAISLDVTDGERIDVVAADVLARYGRVDVLVNNAGRTQVGAFEETTERELRDLFELHVFGPARLTRALLPQMRERGSGSVVNISSFGGQLSFAGFSAYSATKAALEQLSEGLADEVAPFGIKVLIVEPGAFRTNLFGKGAAYFSEENPAYAEKVGPTRQLVQGSDGSQPGDPAKAAAAIRLALDAEKTPLRLALGGDAVDFLTGHLDSVRAELTEWEKVSRGTDFDTE | not failed
18 | LTESEERWRLALDAANLGFWDWNVLTAKVVWSENHERLFGLVSGSFDGTYETFLSCVHPEDRESVIQVIGVCLENKTDYYDEFRIVWPDKSIHWIAAKGRFFYNDQGQPVRMIGVCMDITKSKRTEEN | failed
19 | MQSIRSILVVIDPTPGESLALKRAKLIAGVTQAHLHLLVCDRKHEHSALLSVLKSSLTGEGYSVTTEQAWNESLHETIIDVQQAEGCGLVIKQHLPDAPLKKALLTPADWKLLRYCPTPVLLVKTATPWVGGVVMAAIDVGNMDGEHRALHASIVDHGFDIASLAKAQLHVISAHPSPMLSAADPVFQLKETIEARYREQCKAFQAEFDIDDAHLHIEEGPADVLIPHLAHKLGAVLTIIGTVARTGISGALIGNTAEVVLDSLDSDVLVLKPADIMDHLEELAAKA | not failed
20 | MPQLQKEWFDTWFDTPYYHILYSNRDESEAEVFLTNLMNHMAVPKGASILDLPCGKGRHTLFLAEKGYTLTGADLSVASIALAQSHAPAGVTFLVHDLRKPAWNESFDYVLNLFTSFGYFETEAEDRAAFTTLSKALKSGGSLVIDFMNVTRAVNLLKEEETKVMEGIEFQLKRYVKDGYIHKEIRFEADNTPFFFTERVKALTLDDFKEFFTFAGLTLVDTFGSYQLDAYDAAESDRLIMIAKKLEHHHHHH | not failed
21 | MSMLGIKWKLHGNGKSIRPGHVVAPDERLAWPLTIGIGMQHVVAMFGATFLVPIITGMPPATTLLFSGIGTLLFLVITKGRVPSYLGSSFAFIAPIMASQQQYGVSGALGGVVLAGVVLALIGAVVQKFGAEWINRLMPPIVTGAIVALIGLNLAPAAKANFDAAPVTALITLVTIILVSVLFRGILGRLSILVGVVVGYLVAMMRGEVSYEKMDAAAWVGLPLFQTPEFHIGVVGLFVPVVLVLVAENVGHVKSVAAMTGQNLDGVSGRALMADGAATVLAGFGGGSGTTTYAENIGVMAATKVYSTAAYWVAGVFAILLSFSPKFGELIATVPPGVLGGAATMLYGMIGVLGVKIWVQNKVNFSNPINLTTAAVALIIGIADYAWTIGELKFTGIALGSAAALVIYHGMKGLAHWRGTVAEPETETAGLPPAVKSAMNAAAKRGGKKGK | failed
22 | MGKRFSSFQAAQIRIARPTGQLDEIIRFYEEGLCLKRIGEFSQHNGYDGVMFGLPHADYHLEFTQYEGGSTAPVPHPDSLLVFYVPNAVELAAITSKLKHMGYQEVESENPYWSNGGVTIEDPDGWRIVFMNSKGISGK | not failed
23 | MWTTRLVRSGLAALCAAVLVSSGCARFNDAQSQPFTTEPELRPQPSSTPPPPPPLPPVPFPKECPAPGVMQGCLESTSGLIMGIDSKTALVAERITGAVEEISISAEPKVKTVIPVDPAGDGGLMDIVLSPTYSQDRLMYAYISTPTDNRVVRVADGDIPKDILTGIPKGAAGNTGALIFTSPTTLVVMTGDAGDPALAADPQSLAGKVLRIEQPTTIDQTPPTTALSGIGSGGGLCIDPVDGSLYVADRTPTADRLQRITKNSEVSTVWTWPDKPGVAGCAAMDGTVLVNLINTKLTVAVRLAPSTGAVTGEPDVVRKDTHAHAWALRMSPDGNVWGATVNKTAGDAEKLDDVVFPLFPQGGGFPRNNDDKT | failed
24 | MKLKSLLLRYYPPGIMLEYEKHGELKTKSIDLLDLGPSTDVSALVEEIQKAEPLLTASRTEQVKLLIQRLQEKLGQNSNHTFYLFKVLKAHILPLTNVALNKSGSCFITGSYDRTCKLWDSASGEELNTLEGHRNVVYAIAFNNPYGDKIATGSFDKTCKLWSVETGKCYHTFRGHTAEIVCLSFNPQSTLVATGSMDTTAKLWDIQNGEEVYTLRGHSAEIISLSFNTSGDRIITGSFDHTVVVWDADTGRKVNILIGHCAEISSASFNWDCSLILTGSMDKTCKLWDATNGKCVATLTGHDDEILDSCFDYTGKLIATASADDGVSLCRPGRSAVARSWLTATCASQVQAILLPQPPELCHVLGNHV | failed
